The values below come from patent US20090118185A1 (UNIVERSITY OF ROCHESTER, published 2009).

Numbering of substitutions follows the chain as printed.

Series [1] concerns the target T1, 562(P4-P2)336 factor VIIIa mutant.
T1 chain 1: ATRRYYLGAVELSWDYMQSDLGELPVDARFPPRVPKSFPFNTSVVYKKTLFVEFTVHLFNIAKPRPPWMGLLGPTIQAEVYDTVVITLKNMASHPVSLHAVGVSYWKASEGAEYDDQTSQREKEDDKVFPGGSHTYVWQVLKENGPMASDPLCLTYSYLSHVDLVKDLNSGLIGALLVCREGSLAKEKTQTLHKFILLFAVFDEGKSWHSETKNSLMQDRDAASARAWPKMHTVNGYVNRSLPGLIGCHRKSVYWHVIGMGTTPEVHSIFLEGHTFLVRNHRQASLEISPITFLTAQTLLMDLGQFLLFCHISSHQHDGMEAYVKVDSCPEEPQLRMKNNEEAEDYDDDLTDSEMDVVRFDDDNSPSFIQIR
T1 chain 2: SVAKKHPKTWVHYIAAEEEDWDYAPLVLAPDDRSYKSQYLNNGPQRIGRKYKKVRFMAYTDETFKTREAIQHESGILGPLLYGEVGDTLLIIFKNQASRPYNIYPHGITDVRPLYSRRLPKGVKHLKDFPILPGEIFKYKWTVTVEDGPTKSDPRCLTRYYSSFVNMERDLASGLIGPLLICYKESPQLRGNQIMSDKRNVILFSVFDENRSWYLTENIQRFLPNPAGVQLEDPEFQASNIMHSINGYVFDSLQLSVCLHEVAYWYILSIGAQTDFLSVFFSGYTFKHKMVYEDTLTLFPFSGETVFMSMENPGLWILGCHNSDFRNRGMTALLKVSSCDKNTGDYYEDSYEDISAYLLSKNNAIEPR
T1 chain 3: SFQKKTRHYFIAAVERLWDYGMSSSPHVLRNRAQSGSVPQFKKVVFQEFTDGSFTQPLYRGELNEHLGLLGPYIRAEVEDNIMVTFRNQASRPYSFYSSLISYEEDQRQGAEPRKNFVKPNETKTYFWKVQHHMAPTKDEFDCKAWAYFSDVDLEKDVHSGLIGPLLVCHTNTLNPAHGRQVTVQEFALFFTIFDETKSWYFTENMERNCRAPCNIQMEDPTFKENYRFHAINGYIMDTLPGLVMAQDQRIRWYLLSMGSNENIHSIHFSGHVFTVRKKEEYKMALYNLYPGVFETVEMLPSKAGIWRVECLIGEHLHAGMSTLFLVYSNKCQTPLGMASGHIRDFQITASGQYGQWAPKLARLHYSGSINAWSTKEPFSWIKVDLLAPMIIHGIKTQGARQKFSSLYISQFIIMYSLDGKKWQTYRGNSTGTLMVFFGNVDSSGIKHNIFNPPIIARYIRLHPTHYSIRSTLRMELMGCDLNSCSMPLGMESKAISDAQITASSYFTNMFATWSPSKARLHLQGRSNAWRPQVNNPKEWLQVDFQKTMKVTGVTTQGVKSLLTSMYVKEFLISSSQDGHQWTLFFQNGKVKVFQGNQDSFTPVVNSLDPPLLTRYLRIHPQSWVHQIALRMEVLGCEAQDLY

For series [2], the target named is T2, WT factor VIII (B-domainless recombinant human factor VIII procofactor).
T2 chain 1: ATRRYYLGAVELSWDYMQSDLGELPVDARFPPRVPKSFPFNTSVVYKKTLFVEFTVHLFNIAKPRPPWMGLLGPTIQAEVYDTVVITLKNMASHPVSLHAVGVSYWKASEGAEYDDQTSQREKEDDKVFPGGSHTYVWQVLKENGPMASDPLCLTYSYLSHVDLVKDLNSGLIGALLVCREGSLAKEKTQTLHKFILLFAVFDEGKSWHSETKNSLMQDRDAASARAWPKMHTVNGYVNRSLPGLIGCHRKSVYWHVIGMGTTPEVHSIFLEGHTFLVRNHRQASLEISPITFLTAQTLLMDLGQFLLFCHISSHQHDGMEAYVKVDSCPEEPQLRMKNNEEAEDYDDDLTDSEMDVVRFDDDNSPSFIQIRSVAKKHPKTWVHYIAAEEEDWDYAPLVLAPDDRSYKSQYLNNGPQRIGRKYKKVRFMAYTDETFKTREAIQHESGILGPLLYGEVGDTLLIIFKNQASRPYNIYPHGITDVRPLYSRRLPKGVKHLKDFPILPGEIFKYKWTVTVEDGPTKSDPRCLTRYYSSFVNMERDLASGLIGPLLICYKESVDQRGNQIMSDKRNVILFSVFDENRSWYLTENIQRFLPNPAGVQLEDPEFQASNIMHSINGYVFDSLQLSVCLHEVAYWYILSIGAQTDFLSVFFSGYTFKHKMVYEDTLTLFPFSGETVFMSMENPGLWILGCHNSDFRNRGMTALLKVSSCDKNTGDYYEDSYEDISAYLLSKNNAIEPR
T2 chain 2: T1 chain 3

Series [3] concerns the target T3, 562(P4-P2)336 factor VIII mutant (procofactor).
T3 chain 1: T2 chain 1 with V559P, D560Q, Q561L
T3 chain 2: T1 chain 3

B1: human activated protein C (protein)
chain 1: ANSFLEELRHSSLERECIEEICDFEEAKEIFQNVDDTLAFWSKHVDGDQCLVLPLEHPCASLCCGHGTCIDGIGSFSCDCRSGWEGRFCQREVSFLNCSLDNGGCTHYCLEEVGWRRCSCAPGYKLGDDLLQCHPAVKFPCGRPWKRMEKKRSHL
chain 2: LIDGKMTRRGDSPWQVVLLDSKKKLACGAVLIHPSWVLTAAHCMDESKKLLVRLGEYDLRRWEKWELDLDIKEVFVHPNYSKSTTDNDIALLHLAQPATLSQTIVPICLPDSGLAERELNQAGQETLVTGWGYHSSREKEAKRNRTFVLNFIKIPVVPHNECSEVMSNMVSENMLCAGILGDRQDACEGDSGGPMVASFHGTWFLVGLVSWGEGCGLLHNYGVYTKVSRYLDWIHGHIRDKEAPQKSWAP
With B1, the A1 Cleavage (nM A1/min/nM APC) (nM A1/min/nM APC) in series [1] stood at 7.4. In addition, the A2 Cleavage (nM A2/min/nM APC) (nM A2/min/nM APC) in series [1] was determined as 0.7; in series [2] it was 0.1; in series [3] it was 0.6.
